# Test results as given in article PMC4111604, “Structural Characterization of the Saccharomyces cerevisiae THO Complex by Small-Angle X-Ray Scattering” (PLoS ONE, 2014).
# B1: Thp2p with C-terminal 6xHis tag (isolated protein) (natural protein, Saccharomyces cerevisiae, UniProt O13539 1-261, looked up)
# chain: MTKEEGRTYFESLCEEEQSLQESQTHLLNILDILSVLADPRSSDDLLTESLKKLPDLHRELINSSIRLRYDKYQTREAQLLEDTKTGRDVAAGVQNPKSISEYYSTFEHLNRDTLRYINLLKRLSVDLAKQVEVSDPSVTVYEMDKWVPSEKLQGILEQYCAPDTDIRGVDAQIKNYLDQIKMARAKFGLENKYSLKERLSTLTKELNHWRKEWDDIEMLMFGDDAHSMKKMIQKIDSLKSEINAPSESYPVDKEGDIVLE
# notes: Thp2p, Saccharomyces cerevisiae; pET-30 Ek/LIC vector; purified without TEV cleavage; also called isolated Thp2p; source: E. coli Rosetta (DE3), purified (Ni-NTA, Source 15Q, Superdex 200); not shown: 6xHis, C-terminal, kept
# B2: Mft1pΔC336-392 with C-terminal 6xHis tag (isolated protein) (domain or fragment, Saccharomyces cerevisiae, UniProt P33441 1-335, looked up)
# chain: MPLSQKQIDQVRTKVHYSEVDTPFNKYLDILGKVTKLTGSIINGTLSNDDSKIEKLTEQNISQLKESAHLRFLDLQSSIDTKKVADENWETCQQETLAKLENLKDKLPDIKSIHSKLLLRIGKLQGLYDSVQVINREVEGLSEGRTSLVVTRAEWEKELGTDLVKFLIEKNYLKLVDPGLKKDSSEERYRIYDDFSKGPKELESINASMKSDIENVRQEVSSYKEKWLRDAEIFGKITSIFKEELLKRDGLLNEAEGDNIDEDYESDEDEERKERFKRQRSMVEVNTIENVDEKEESDHEYDDQEDEENEEEDDMEVDVEDIKEDNEVDGESSQQ
# notes: pET-30 Ek/LIC vector; purified without TEV cleavage; also called isolated Mft1p; source: E. coli Rosetta (DE3), purified (Ni-NTA, Source 15Q, Superdex 200); not shown: 6xHis, C-terminal, kept
# Target: the molecule itself
# Assay: SAXS; purified proteins or co-expressed, co-purified complexes in solution; 50 mM Tris-Cl pH 8.0, 100 mM KCl, 5 mM MgCl2, 5 mM 2-mercaptoethanol; 10°C or 25°C; 3-6 concentrations between 7.8 and 0.15 mg/ml; homodimers told from measurements at low concentrations
row,Protein,stoichiometry N
1,B1,2
2,B2,2
